Assay in all cases: ITC
In general terms: Isothermal titration calorimetry measures the heat released or taken up as one component is titrated into another.

The target of assay [1] is T1, tH2 (aa91-189) mutant K^116K^117A (vaccinia virus, UniProt P08583 91-189, K^116K^117A | K^116K^117A).
T1 sequence: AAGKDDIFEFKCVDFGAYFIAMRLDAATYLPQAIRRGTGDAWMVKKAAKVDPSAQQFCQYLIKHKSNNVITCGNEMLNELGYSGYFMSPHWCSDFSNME

Assay [2] addresses T2, tH2 (aa91-189) mutant R^125R^126A (vaccinia virus, UniProt P08583 91-189, R^125R^126A | R^125R^126A).
T2 sequence: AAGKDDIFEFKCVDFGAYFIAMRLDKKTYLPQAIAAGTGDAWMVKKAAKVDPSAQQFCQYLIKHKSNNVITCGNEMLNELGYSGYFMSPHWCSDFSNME

Assay [3] has as its target T3, tH2 (aa91-189) mutant D^130A (vaccinia virus, UniProt P08583 91-189, D^130A).
T3 sequence: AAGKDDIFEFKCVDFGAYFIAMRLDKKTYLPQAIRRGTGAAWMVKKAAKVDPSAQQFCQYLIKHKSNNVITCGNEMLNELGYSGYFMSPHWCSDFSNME

Assay [4] has as its target T4, tH2 (aa91-189) mutant G^127G^129A (vaccinia virus, UniProt P08583 91-189, G^127G^129A | G^127G^129A).
T4 sequence: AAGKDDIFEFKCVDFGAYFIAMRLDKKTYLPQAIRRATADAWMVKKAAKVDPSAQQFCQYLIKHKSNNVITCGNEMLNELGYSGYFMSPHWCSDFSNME

Assay [5] concerns the target T5, tH2 (aa91-189) mutant D^141A (vaccinia virus, UniProt P08583 91-189, D^141A).
T5 sequence: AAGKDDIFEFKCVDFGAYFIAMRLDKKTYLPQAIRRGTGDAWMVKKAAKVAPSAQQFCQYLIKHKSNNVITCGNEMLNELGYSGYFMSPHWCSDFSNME

The target of assay [6] is T6, tH2 (aa91-189) mutant W^132A (vaccinia virus, UniProt P08583 91-189, W^132A).
T6 sequence: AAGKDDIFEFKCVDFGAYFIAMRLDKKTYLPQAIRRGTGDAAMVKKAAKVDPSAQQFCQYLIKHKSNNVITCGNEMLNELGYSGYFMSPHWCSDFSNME

Experimental findings from publication doi:10.1101/2023.08.28.555102 (bioRxiv, 2023) are described below.

B1: recombinant A28 (aa56-146) (domain or fragment)
chain: DRRVQDVNDTISDVKQKWRCVVYPGNGFVSASIFGFQAEVGPNNTRSIRKFNTMQQCIDFTFSDVININIYNPCVVPNINNAECQFLKSVL
What is called Kd is a measure of binding affinity in units of concentration. The low end stands for higher affinity, the high end for lower affinity. With B1, the Kd in assay [1] was roughly 5.3 µM. The binding result in assay [2], in assay [3], in assay [4], in assay [5] and in assay [6] was “binds” throughout.
